In US7579150B1, “Mobile RNA acts as a signal to regulate plant growth and development” (Iowa State University Research Foundation, Inc., priority 2004, dated 2009):

B1: StBEL-30 protein synthesized in vitro from pGEM11Z (other)
chain: MATYFPSPNNQRDADQTFQYFRQSLPESYSEASNAPENMMVFMNYSSSGAYSDMLTGTSQQQHNCIDIPSIGATPFNTSQQEILSNLGGSQMGIQDFSSWRDSRNEMLADNVFQVAQNVQGQGLSLSLGSNIPSGIGISHVQSQNPNQGGGFNMSFGDGDNSQPKEQRNADYFPPDNPGRDLDAMKGYNSPYGTSSIARTIPSSKYLKAAQYLLDEVVSVRKAIKEQNSKKELTKDSRESDVDSKNISSDTPANGGSNPHESKNNQSELSPTEKQEVQNKLAKLLSMLDEIDRRYRQYYHQMQIVVSSFDVVAGEGAAKPYTALALQTISRHFRCLRDAICDQIRASRRSLGEQDASENSKAIGISRLRFVDHHIRQQRALQQLGMMQQHAWRPQRGLPESSVSVLRAWLFEHFLHPYPKDSDKIMLARQTGLTRSQVSNWFINARVRLWKPMVEEMYKEEAGDAKIDSNSSSDVAPRLATKDSKVEERGELHQNAASEFEQYNSGQILESKSNHEADVEMEGASNAETQSQSGMENQTGEPLPAMDNCTLFQDAFVQSNDRFSEFGSFGSGNVLPNGVSLTLGLQQGEGSNLPMSIETHVSYVPLRADDMYSTAPTTMVPETAEFNCLDSGNRQQPFWLLPSAT
modifications: 35S-methionine labelled (in vitro translation)
notes: BEL cDNA cloned into pGEM11Z under the T7 promoter; also called p11Z-30
B2: StBEL-13 protein synthesized in vitro from pGEM11Z (other)
chain: MVMGGGASSQQLGYAKNHTPNVAESMQLFLMNPQPRSPSPSPPNSTSSTLHMLLPNPSSTSTLQGFPNPAEGSFGQFITWGNGGASAATATHHLNAQNEIGGVNVVESQGLSLSLSSSLQHKAEELQMSGEAGGMMFFNQGGSSTSGQYRYKNLNMGGSGVSPNIHQVHVGYGSSLGVVNVLRNSKYAKAAQELLEEFCSVGRGKLKKTNNKAAANNPNTNPSGANNEASSKDVPTLSAADRIEHQRRKVKLLSMVDEVDRRYNHYCEQMQMVVNSFDLVMGFGTAVPYTALAQKAMSRHFRCLKDAIGAQLKQSCELLGEKDAGNSGLTKGETPRLKMLEQSLRQQRAFHQMGMMEQEAWRPQRGLPERSVNILRAWLFEHFLHPYPSDADKHLLARQTGLSRNQVSNWFINARVRLWKPMVEDMYQQEAKDEDGDGDEKSQSQNSGNNIIAQTPTPNSLTNTSSTNMTTTTAPTTTTALAAAETGTAATPITVTSSKRSQINATDSDPSLVAINSFSENQATFPTNIHDPDDCRRGNLSGDDGTTTHDHMGSTMIRFGTTAGDVSLTLGLRHAGNLPENTHFFG
modifications: 35S-methionine labelled (in vitro translation)
notes: BEL cDNA cloned into pGEM11Z under the T7 promoter; also called p11Z-13

What was measured:
[1] = target: T1, StBEL-05/POTH1 heterodimer (Solanum tuberosum); test: cell_activity; conditions: tobacco protoplasts, GUS reporter
T1 chain 1: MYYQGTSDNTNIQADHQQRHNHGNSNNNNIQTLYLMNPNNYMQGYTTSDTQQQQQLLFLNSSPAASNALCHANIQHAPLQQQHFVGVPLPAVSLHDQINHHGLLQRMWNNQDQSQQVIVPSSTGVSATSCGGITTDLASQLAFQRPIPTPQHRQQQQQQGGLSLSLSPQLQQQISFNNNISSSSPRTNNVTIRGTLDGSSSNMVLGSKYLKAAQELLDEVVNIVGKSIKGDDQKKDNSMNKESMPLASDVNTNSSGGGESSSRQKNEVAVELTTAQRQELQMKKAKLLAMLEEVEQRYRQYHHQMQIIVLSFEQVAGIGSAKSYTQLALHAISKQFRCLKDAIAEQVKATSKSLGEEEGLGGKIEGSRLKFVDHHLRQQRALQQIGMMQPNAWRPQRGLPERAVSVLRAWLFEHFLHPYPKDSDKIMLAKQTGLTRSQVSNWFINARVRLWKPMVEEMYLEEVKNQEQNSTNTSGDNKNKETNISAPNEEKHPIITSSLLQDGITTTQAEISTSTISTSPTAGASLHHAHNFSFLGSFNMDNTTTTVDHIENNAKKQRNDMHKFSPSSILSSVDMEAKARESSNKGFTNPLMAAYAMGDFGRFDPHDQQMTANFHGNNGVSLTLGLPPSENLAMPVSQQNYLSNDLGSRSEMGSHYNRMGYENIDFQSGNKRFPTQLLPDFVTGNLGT
T1 chain 2: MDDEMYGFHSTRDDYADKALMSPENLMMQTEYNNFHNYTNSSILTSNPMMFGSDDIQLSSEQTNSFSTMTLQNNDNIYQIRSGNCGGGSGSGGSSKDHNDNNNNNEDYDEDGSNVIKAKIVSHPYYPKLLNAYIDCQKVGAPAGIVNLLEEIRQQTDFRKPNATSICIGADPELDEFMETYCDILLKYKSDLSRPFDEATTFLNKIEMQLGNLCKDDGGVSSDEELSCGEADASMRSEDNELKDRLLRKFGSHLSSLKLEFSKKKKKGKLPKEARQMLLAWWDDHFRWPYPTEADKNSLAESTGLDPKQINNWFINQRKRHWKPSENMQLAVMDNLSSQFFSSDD

POTH1 = target: T2, POTH1 (Solanum tuberosum); test: cell_activity; conditions: tobacco protoplasts, GUS reporter
T2 chain: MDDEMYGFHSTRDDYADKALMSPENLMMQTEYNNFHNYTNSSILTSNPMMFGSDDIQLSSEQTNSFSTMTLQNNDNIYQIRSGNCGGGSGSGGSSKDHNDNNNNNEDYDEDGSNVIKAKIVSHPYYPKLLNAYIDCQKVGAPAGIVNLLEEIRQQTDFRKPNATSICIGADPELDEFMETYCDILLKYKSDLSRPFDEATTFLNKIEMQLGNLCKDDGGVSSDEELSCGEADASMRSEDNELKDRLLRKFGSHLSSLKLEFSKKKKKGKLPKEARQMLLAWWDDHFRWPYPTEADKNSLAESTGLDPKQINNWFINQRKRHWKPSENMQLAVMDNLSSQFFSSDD

StBEL-05 = target: T3, StBEL-05 (Solanum tuberosum); test: cell_activity; conditions: tobacco protoplasts, GUS reporter
T3 chain: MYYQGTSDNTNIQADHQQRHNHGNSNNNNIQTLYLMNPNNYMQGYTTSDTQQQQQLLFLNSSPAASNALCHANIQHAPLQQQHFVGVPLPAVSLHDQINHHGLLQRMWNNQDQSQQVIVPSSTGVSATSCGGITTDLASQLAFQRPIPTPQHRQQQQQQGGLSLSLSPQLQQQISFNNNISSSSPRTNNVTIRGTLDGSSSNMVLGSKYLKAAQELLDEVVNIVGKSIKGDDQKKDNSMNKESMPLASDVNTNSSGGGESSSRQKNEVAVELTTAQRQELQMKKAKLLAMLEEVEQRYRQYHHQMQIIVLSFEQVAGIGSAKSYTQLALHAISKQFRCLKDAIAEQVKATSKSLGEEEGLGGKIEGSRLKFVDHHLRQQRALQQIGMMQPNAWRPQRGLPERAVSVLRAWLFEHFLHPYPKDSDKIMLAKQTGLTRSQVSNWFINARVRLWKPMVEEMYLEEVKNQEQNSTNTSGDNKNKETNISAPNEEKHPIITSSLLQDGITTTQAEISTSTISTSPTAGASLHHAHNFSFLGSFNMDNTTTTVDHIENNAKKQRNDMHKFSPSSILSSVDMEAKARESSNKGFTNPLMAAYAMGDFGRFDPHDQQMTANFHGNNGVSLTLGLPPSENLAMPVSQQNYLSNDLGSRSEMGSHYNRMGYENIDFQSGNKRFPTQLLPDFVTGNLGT

[2] = target: T4, GAD:POTH1 fusion protein (full-length POTH1 fused to the GAL4 activation domain) (Solanum tuberosum, 35S-methionine labelled (in vitro translation)); test: co-immunoprecipitation of in vitro translated 35S-labelled proteins with anti-GAD antibodies, SDS-PAGE and autoradiography
T4 construct: In vitro transcribed/translated bait of the immunoprecipitation assay; no 35S label there; also called POTH1:GAD
T4 chain: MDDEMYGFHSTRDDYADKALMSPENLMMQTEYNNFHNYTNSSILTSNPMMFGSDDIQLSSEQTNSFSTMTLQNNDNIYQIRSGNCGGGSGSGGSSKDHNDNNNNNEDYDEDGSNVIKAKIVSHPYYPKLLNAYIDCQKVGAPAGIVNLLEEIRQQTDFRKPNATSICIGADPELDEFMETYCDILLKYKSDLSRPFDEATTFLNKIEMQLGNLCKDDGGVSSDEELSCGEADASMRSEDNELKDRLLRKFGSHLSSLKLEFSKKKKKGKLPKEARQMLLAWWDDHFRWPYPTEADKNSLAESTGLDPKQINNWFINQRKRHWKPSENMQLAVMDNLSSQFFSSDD
Experimental: (§1) In vitro binding experiments were performed as described by Ni et al., "PIF3, a Phytochrome-Interacting Factor Necessary for Normal Photoinduced Signal Transduction, is a Novel Basic Helix-Loop-Helix Protein," *Cell* 95:657-667 (1998), which is hereby incorporated by reference in its entirety. The full-length sequence for POTH1 was cloned into a pET17b/GAD fusion cassette and transcribed under the control of the T7 promoter. The BEL cDNAs were cloned into pGEM11Z vectors and were transcribed under the control of the T7 promoter. ^35S-methionine labeled bait and prey proteins were synthesized using the TnT in vitro transcription-translation kit (Promega) according to the manufacturer's protocols. Each 50 µl TnT reaction contained 2.0 µg of template plasmid DNA and […] (20 µCi) of labeled ^35S-methionine. The POTH1:GAD/BEL complex was immunoprecipitated with anti-GAD antibodies (Santa Cruz Biotechnology, CA). The proteins from the pellet (one-half the fraction) and for the prey (one-fourth of the reaction volume) were resolved on a 10% SDS-PAGE gel and visualized by autoradiography.

[3] = target: T5, GAD protein alone (GAL4 activation domain) (UniProt P04386 768-881, limits assumed); test: immunoprecipitation of in vitro translated 35S-labelled proteins with anti-GAD antibodies
T5 construct: domain: GAD; Negative control of the immunoprecipitation assay
T5 sequence (looked up): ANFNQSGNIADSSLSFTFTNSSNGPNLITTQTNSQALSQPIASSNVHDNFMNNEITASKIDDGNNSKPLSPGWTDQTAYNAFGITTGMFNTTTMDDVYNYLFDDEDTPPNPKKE
Experimental: as §1

[4] = target: T4, GAD:POTH1 fusion protein (full-length …); test: immunoprecipitation of in vitro transcribed/translated proteins
Experimental: as §1

| Molecule | activity [1] [% repression] | activity (POTH1) [% repression] | activity (StBEL-05) [% repression] | binding result [2] | binding result [3] | binding result [4] |
| --- | --- | --- | --- | --- | --- | --- |
| ga20ox1 promoter reporter (980 bp) | 80 | > 50 | > 50 | – | – | – |
| B1 | – | – | – | binds | no binding | – |
| B2 | – | – | – | – | no binding | binds |
